Test results: patent publication CN114716554A (dated 2022)

Assays:
[1] = biological target: T1, LILRB1 Protein, Human, Recombinant (ECD, His Tag), Sino Biological (human, UniProt Q8NHL6 24-461); experiment: ELISA, coated protein
T1 construct: extracellular domain; Bought recombinant protein with a His tag; also called LILRB1蛋白

[2] = biological target: T2, ILT4 Protein, Human, Recombinant (ECD, His Tag), Sino Biological (human, UniProt Q8N423 22-460); experiment: ELISA, coated protein
T2 construct: extracellular domain; Bought recombinant protein with a His tag; also called LILRB2蛋白
T2 sequence (Q8N423 22-460): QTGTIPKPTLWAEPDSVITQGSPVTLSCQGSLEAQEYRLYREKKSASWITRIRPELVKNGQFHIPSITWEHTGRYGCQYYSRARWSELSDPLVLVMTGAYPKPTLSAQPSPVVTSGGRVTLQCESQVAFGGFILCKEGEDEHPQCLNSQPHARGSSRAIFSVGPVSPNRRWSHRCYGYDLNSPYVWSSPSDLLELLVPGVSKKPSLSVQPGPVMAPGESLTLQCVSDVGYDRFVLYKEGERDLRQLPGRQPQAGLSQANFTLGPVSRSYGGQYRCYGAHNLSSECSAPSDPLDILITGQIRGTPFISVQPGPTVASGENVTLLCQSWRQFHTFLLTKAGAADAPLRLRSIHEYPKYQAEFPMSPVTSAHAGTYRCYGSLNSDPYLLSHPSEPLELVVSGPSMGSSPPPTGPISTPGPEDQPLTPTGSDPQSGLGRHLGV

[3] = biological target: T3, LILRB3 Protein, Human, Recombinant (ECD, His Tag), Sino Biological (human, UniProt O75022 24-443); experiment: ELISA, coated protein
T3 construct: extracellular domain; Bought recombinant protein with a His tag; also called LILRB3蛋白
T3 sequence (O75022 24-443): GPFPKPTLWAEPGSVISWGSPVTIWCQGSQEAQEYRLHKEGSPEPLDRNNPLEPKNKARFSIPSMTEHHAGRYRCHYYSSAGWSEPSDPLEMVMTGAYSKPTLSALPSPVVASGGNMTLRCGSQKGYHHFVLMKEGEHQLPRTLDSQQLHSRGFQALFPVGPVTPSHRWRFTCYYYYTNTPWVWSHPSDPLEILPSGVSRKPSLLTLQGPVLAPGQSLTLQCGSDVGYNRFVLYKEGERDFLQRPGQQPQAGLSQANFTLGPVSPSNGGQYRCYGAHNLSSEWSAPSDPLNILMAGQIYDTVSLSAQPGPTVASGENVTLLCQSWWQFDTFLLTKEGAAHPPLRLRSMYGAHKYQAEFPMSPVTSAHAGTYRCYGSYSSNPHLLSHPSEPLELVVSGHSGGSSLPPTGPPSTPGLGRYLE

[4] = biological target: T4, LILRB5/CD85c Protein, Human, Recombinant (ECD, His Tag), Sino Biological (human, UniProt O75023 24-458); experiment: ELISA, coated protein
T4 construct: extracellular domain; Bought recombinant protein with a His tag; also called LILRB5蛋白
T4 sequence (O75023 24-458): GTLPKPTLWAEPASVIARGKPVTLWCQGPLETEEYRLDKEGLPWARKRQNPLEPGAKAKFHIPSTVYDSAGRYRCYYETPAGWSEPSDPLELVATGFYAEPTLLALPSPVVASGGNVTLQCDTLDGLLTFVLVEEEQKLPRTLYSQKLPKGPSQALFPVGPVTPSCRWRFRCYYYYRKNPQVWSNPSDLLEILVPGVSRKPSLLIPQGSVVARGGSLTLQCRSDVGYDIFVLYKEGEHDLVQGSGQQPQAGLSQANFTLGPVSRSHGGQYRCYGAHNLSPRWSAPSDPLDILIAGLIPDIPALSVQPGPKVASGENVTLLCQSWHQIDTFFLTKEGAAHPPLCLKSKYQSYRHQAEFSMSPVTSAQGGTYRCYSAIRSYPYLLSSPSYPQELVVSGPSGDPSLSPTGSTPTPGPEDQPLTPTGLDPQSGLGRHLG

[5] = biological target: T5, LILRB4 on LILRB4阳性细胞THP-1 (human, UniProt Q8NHJ6 22-448); experiment: flow cytometry on THP-1 cells
T5 construct: whole, on cells; also called LILRB4阳性肿瘤细胞THP-1; 人单核白血病细胞THP-1

[6] = biological target: T6, Human LILRB4/CD85k/ILT3 Protein (ECD, His Tag), Sino Biological (human, UniProt Q8NHJ6 22-259); experiment: ELISA, coated LILRB4 ECD-His, antibody titrated
T6 construct: extracellular domain; Bought recombinant protein with a His tag; also called 人LILRB4蛋白; LILRB4蛋白

T1 sequence (Q8NHL6 24-461): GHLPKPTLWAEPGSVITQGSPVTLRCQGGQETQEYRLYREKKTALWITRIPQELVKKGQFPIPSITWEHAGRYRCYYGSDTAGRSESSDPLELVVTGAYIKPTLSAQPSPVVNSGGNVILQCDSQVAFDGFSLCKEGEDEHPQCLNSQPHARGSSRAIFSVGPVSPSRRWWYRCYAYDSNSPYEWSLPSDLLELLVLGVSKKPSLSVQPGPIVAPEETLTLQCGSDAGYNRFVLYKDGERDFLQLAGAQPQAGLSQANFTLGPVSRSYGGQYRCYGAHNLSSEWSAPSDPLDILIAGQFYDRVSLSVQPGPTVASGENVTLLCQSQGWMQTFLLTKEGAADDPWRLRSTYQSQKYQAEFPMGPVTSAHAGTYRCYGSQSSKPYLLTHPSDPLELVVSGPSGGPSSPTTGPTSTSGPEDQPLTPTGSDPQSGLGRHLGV

B1: 全人源抗体2B9 (antibody, V domains shown)
VH: EVQLVQSGGGLIQPGGSLRLSCAASGFTVSSNYMSWVRQAPGKGLEWVSVIYSGGSTYYADSVKGRFTISRDNSKNTLYLQMNSLRAEDTAVYYCAKGATGGHDAFDIWGQGTTVTVSS
VL: not shown
notes: Fully human antibody from a phage library, made as a whole antibody in CHO-S cells; IgG4 heavy chain constant region, Ig kappa light chain
binding result [1]: no binding (tested: 10 μg/mL) | binding result [2]: no binding (tested: 10 μg/mL) | binding result [3]: no binding (tested: 10 μg/mL) | binding result [4]: no binding (tested: 10 μg/mL) | binding result [5]: binds | binding result [6]: binds
